Experimental data as given in PMC4244197 (Molecular Biology of the Cell, 2014).

Biological target: T1, GST-17NAnk (GST-tagged N-terminal cytosolic domain of zDHHC17, amino acids 11-305) (mouse, UniProt Q80TN5-1 11-305)
T1 sequence (looked up): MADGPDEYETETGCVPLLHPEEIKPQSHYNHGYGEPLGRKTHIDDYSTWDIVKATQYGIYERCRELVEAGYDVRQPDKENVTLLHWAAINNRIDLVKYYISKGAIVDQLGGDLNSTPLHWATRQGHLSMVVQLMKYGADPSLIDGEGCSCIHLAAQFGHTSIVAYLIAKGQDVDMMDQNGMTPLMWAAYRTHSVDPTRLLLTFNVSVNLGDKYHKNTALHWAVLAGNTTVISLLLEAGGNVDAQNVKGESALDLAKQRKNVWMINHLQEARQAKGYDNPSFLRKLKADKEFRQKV
Assay: pull-down

fold lower binding than nonpalmitoylated Myc-CSP: 6 fold
B1: Myc-tagged CSP, palmitoylated (p) (natural protein, UniProt Q29455 1-198, looked up)
chain: MADQRQRSLSTSGESLYHVLGLDKNATSDDIKKSYRKLALKYHPDKNPDNPEAADKFKEINNAHAILTDATKRNIYDKYGSLGLYVAEQFGEENVNTYFVLSSWWAKALFIFCGLLTCCYCCCCLCCCFNCCCGKCKPKAPEGEETEFYVSPEDLEAQLQSDEREAADTPIVIQPASATETTQLTADSHPSYHTDGFN
modifications: palmitoylated (S-acylated) cysteines, positions not given
